Reference: patent US20250277022A1 (STAIDSON BEIJING BIOPHARMACEUTICALS, published 2025)
Read-outs that look alike come from different tables or passages of the source.

Assays:
human TSLP [1] = molecular target: T1, human TSLP (human, UniProt Q969D9 29-159); experiment: cell-based or functional assay
human TSLP [2] = molecular target: T1, human TSLP; experiment: cell-based or functional assay; remark: listed apart in the source
human TSLP [3] = molecular target: T1, human TSLP; experiment: ELISA, plate coated with human TSLP, test antibodies as human IgG1
Description: (§1) ELISA Screening: Monoclonal scFv antibodies were selected and subjected to ligand binding assays. The first assay was designed to identify scFv antibodies that bound human TSLP and/or cynomolgus TSLP. Briefly, a 96-well plate was coated with human TSLP or cynomolgus TSLP in PBS at 0.1 μg/well and left overnight at 4° C. Before loading the scFv antibodies, the plates were washed with TBST, blocked for 1-2 hours at 37° C. using 5% milk and washed again with TBST. Each scFv sample was first diluted to 40 μg/mL, and 150 μL was added to the first row of wells. The 40 μg/mL scFv samples were then serially diluted at a 1:3 ratio and added to the remaining wells. After incubating for an hour at 37° C., followed by washing with TBST for 6 times, 100 μl of the secondary antibody (HRP labeled mouse anti-flag (1:2500)) was added to each well. After incubation for an hour under 37° C., the plate was washed for 3 times using TBST. TMB was then added at 100 μL/well and incubated for 10-20 minutes at 37° C. 2 M H₂SO₄ was used to stop the reaction. The ELISA results (OD405) were then analyzed and the binding curves were generated by PRISM.

cynomolgus monkey TSLP [4] = molecular target: T2, cynomolgus monkey TSLP (cynomolgus monkey, UniProt A0A7N9CAT7 29-159); experiment: ELISA, plate coated with cynomolgus monkey TSLP, test antibodies as human IgG1
T2 construct: also called cynomolgus TSLP; recombinant cynomolgus monkey TSLP
T2 sequence (A0A7N9CAT7 entry or part of it): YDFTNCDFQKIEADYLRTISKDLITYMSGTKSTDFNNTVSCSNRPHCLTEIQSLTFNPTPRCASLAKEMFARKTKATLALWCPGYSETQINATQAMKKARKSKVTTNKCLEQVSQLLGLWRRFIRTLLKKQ
Description: as §1

TSLP-His = molecular target: T3, TSLP-His (human, UniProt Q969D9 29-159, limits assumed); experiment: HTRF competition: blocking of TSLP-his binding to HEK293-Flag-hTSLPR-IL7Ra cells, IgG1
T3 construct: also called his-tagged TSLP; not shown: His-tag

human TSLP [5] = molecular target: T1, human TSLP; experiment: cell-based or functional assay; remark: listed apart in the source
human TSLP [6] = molecular target: T1, human TSLP; experiment: ELISA, plate coated with human TSLP, test antibodies as human IgG1; remark: listed apart in the source
Description: as §1

cynomolgus monkey TSLP [7] = molecular target: T2, cynomolgus monkey TSLP; experiment: ELISA, plate coated with cynomolgus monkey TSLP, test antibodies as human IgG1; remark: listed apart in the source
Description: as §1

human TSLP [8] = molecular target: T1, human TSLP; experiment: ELISA, biotin labeled full length TSLP on streptavidin plate; full length isoform TSLP, not short isoform
Description: Binding of anti-TSLP antibodies to short form TSLP was determined using an ELISA method. […] A rabbit serum was used as a negative control. Briefly, a 96-well plate was coated with 100 μl of 1 μg/mL streptavidin overnight. The plates were washed with PBST, then 100 μl of 1 μg/ml biotin labeled short TSLP or long TSLP was added to the plates, incubated at 37° C. for 1 hour. […] After incubating the plates for an hour at 37° C., followed by washing with PBST for 6 times, the secondary antibody anti-human-Fc-HRP or anti-rabbit-Fc-AP was added to each well. After incubation for an hour under 37° C., the plate was washed for 3 times using PBST. TMB or pNPP was then added at 100 μL/well and incubated for 10-20 minutes at room temperature. 2 M H₂SO₄ or 3 M NaOH was used to stop the reaction. The ELISA results were then analyzed and the binding curves were generated by GraphPad Prism 5 software (GraphPad Software).

[9] = molecular target: E. coli derived human TSLP (human, UniProt Q969D9 29-159, limits assumed); experiment: cell-based or functional assay
human TSLP [10] = molecular target: T1, human TSLP; experiment: cell-based or functional assay; remark: listed apart in the source
human IL-7 = molecular target: T4, human IL-7 (human, UniProt P13232 26-177); experiment: ELISA on human IL-7
T4 construct: also called TSLP homologous protein IL-7
T4 sequence (looked up): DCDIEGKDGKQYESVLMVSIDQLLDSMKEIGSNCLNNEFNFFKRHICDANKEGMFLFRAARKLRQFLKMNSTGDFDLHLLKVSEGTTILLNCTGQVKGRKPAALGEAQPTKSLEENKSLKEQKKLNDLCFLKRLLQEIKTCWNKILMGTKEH

human TSLP [11] = molecular target: T1, human TSLP; experiment: solution equilibrium titration, MSD electrochemiluminescence, IgG1
cynomolgus monkey TSLP [12] = molecular target: T2, cynomolgus monkey TSLP; experiment: as above
cynomolgus monkey TSLP [13] = molecular target: T2, cynomolgus monkey TSLP; experiment: ELISA, plate coated with cynomolgus monkey TSLP
cynomolgus monkey TSLP [14] = molecular target: T2, cynomolgus monkey TSLP; experiment: solution equilibrium titration, MSD electrochemiluminescence
human TSLP [15] = molecular target: T1, human TSLP; experiment: cell-based or functional assay; remark: listed apart in the source
human TSLP [16] = molecular target: T1, human TSLP; experiment: ELISA, plate coated with human TSLP, test antibodies as human IgG1; remark: listed apart in the source
Description: as §1

cynomolgus monkey TSLP [17] = molecular target: T2, cynomolgus monkey TSLP; experiment: ELISA, plate coated with cynomolgus monkey TSLP, test antibodies as human IgG1; remark: listed apart in the source
Description: as §1

cynomolgus monkey TSLP [18] = molecular target: T2, cynomolgus monkey TSLP; experiment: as above; remark: listed apart in the source
Description: as §1

human TSLP [19] = molecular target: T1, human TSLP; experiment: ELISA, plate coated with human TSLP, test antibodies as human IgG1; remark: listed apart in the source
Description: as §1

B1: TSLP-04 (antibody, V domains shown)
V domain 1: QEQLVQSGDEVKKPGASVKVSCKSSGFTFGSYAISWVRQAPGQGLEWMGMLVPLLGVTNYAEKFQGRVTITADPSTTTTSMELSSLRSEDTAVYYCARGGSNYLYWYFDLWGPGTPITVSS
V domain 2: QSAPIQPRSVSGSPGQSVTISCTGTSSDIGGYNRISWYQQHPGKAPKLMIYDVSKRPSGVSDRFSGSKSGNTASLTISGLQAEDEADYYCSSYAGTDTFVLFGGGTQLTIV
notes: also called parent antibody TSLP-04
IC50, inhibition of human TSLP-induced Stat5 activation (Stat5-luciferase reporter, Ba/F3 cells with hTSLPR and hIL7Ra) (human TSLP [1]): 0.0364 µg/mL
IC50, inhibition of TSLP induced proliferation of Ba/F3-TSLPR-IL7Ra cells (CellTiter-Glo) (human TSLP [2]): 0.15 µg/mL
EC50 (read off the curve) (human TSLP [3]): ~0.1 µg/mL

B2: TSLP-0401 (antibody, V domains shown)
V domain 1: QEQLVQSGDEVKKPGASVKVSCKSSGFTFGSYAISWVRQAPGQGLEWMGMIIPLLGVTDYAEKFQGRVTITADPSTTTTSMELSSLRSEDTAVYYCARGGTNYLYWYFDLWGPGTPITVSS
V domain 2: QSAPIQPRSVSGSPGQSVTISCTGTSSDIGGYNRVSWYQQHPGKAPKLMIYEVSKRPSGVSDRFSGSKSGNTASLTISGLQAEDEADYYCSAYAGTDTFVLFGGGTQLTIV
IC50, inhibition of human TSLP-induced Stat5 activation (Stat5-luciferase reporter, Ba/F3 cells with hTSLPR and hIL7Ra) (human TSLP [1]): 0.0195 µg/mL
IC50, inhibition of TSLP induced proliferation of Ba/F3-TSLPR-IL7Ra cells (CellTiter-Glo) (human TSLP [2]): 0.0195 µg/mL
EC50 (read off the curve) (human TSLP [3]): ~0.1 µg/mL
EC50 (read off the curve) (cynomolgus monkey TSLP [4]): ~2 µg/mL
IC50 (TSLP-His): 0.333 µg/mL

B3: TSLP-01 (antibody, V domains shown)
VH: QVQLQESGPGLVKPSETLSLTCAVSGYSISSGYGWSWIRQPPGKGLEWIGYISYYGSISYNPSLKSRVTISRDTSKNQFSLKLSSVTAADTAVYYCARTNLLYFDSWGQGTLVTVSS
VL: EIVMTQSPATLSLSPGERATLSCRASQSVSNNLAWYQQKPGQAPRLLIYDASSRATGIPARFSGSGSGTDFTLTISSLEPEDFAVYYCQQYSDWPQYTFGQGTKVEIK
notes: also called parent antibody TSLP-01
IC50, inhibition of human TSLP-induced Stat5 activation (Stat5-luciferase reporter, Ba/F3 cells with hTSLPR and hIL7Ra) (human TSLP [5]): 0.0193 µg/mL
EC50 (read off the curve) (human TSLP [6]): ~0.03 µg/mL
EC50 (read off the curve) (cynomolgus monkey TSLP [7]): ~0.5 µg/mL
EC50 (human TSLP [8]): 0.0335 µg/mL

B4: TSLP-0107 (antibody, V domains shown)
VH: QVQLQESGPGLVKPSETLSLTCTVSGYSISSGYGWSWIRQPPGKGLEWIGYISYYGSISYNPSLKSRVTISVDTSKNQFSLKLSSVTAADTAVYYCARTNLLYFDSWGQGTLVTVSS
VL: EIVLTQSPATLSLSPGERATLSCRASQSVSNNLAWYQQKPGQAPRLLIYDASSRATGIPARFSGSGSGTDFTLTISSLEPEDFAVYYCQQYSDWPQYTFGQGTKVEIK
notes: also called TSLP-0107-IgG1
IC50, inhibition of human TSLP-induced Stat5 activation (Stat5-luciferase reporter, Ba/F3 cells with hTSLPR and hIL7Ra) (human TSLP [5]): 0.00884 µg/mL
IC50, inhibition of E. coli derived human TSLP induced Stat5 activation [9]: 0.00259 µg/mL
IC50, inhibition of TSLP induced proliferation of Ba/F3-TSLPR-IL7Ra cells (CellTiter-Glo) (human TSLP [2]): 0.0136 µg/mL
IC50, inhibition of human TSLP induced TARC release from human PBMCs (TARC ELISA) (human TSLP [10]): 0.000758 µg/mL
binding result (human IL-7): no binding
Kd (human TSLP [11]): 0.044 nM
Kd (cynomolgus monkey TSLP [12]): 0.0254 nM
EC50 (read off the curve) (human TSLP [6]): ~0.04 µg/mL
EC50 (read off the curve) (cynomolgus monkey TSLP [7]): ~0.7 µg/mL
IC50 (TSLP-His): 0.116 µg/mL

B5: AMG157 (antibody, V domains shown)
VH: QMQLVESGGGVVQPGRSLRLSCAASGFTFRTYGMHWVRQAPGKGLEWVAVIWYDGSNKHYADSVKGRFTITRDNSKNTLNLQMNSLRAEDTAVYYCARAPQWELVHEAFDIWGQGTMVTVSS
VL: SYVLTQPPSVSVAPGQTARITCGGNNLGSKSVHWYQQKPGQAPVLVVYDDSDRPSWIPERFSGSNSGNTATLTISRGEAGDEADYYCQVWDSSSDHVVFGGGTKLTVLG
EC50 (read off the curve) (cynomolgus monkey TSLP [13]): ~0.5 µg/mL
Kd (cynomolgus monkey TSLP [14]): 0.0176 nM

B6: TSLP-0202 (antibody, V domains shown)
VH: QVQLVQSGAEVKKPGSSVKVSCKASGFTFGSYGINWVRQAPGQGLEWMGVIVPLVGVTIYAEKFQGRVTITADESTSTAYMELSSLRSEDTAVYYCARGQEYFYWYFDLWGQGTLVTVSS
VL: QSALTQPPSASGSPGQSVTISCSGSSSDIGGYNRVSWYQQHPGKAPKLMIYDVSKRPSGVPDRFSGSKSGNTASLTVSGLQAEDEADYYCSSYAGTDTFILFGGGTKLTVL
notes: also called TSLP-0202-IgG1
IC50, inhibition of human TSLP-induced Stat5 activation (Stat5-luciferase reporter, Ba/F3 cells with hTSLPR and hIL7Ra) (human TSLP [15]): 0.00257 µg/mL
IC50, inhibition of TSLP induced proliferation of Ba/F3-TSLPR-IL7Ra cells (CellTiter-Glo) (human TSLP [2]): 0.0131 µg/mL
IC50, inhibition of human TSLP induced TARC release from human PBMCs (TARC ELISA) (human TSLP [10]): 0.000365 µg/mL
Kd (human TSLP [11]): 0.0211 nM
Kd (cynomolgus monkey TSLP [12]): 0.00447 nM
EC50 (read off the curve) (human TSLP [16]): ~0.08 µg/mL
EC50 (read off the curve) (cynomolgus monkey TSLP [17]): ~0.7 µg/mL
IC50 (TSLP-His): 0.297 µg/mL

B7: TSLP-0301 (antibody, V domains shown)
VH: EVQLVESGGGLVQPGGSLRLSCAASGFTFSNYDMTWVRQAPGKGLEWVSSITFASSYIYYADSVKGRFTISRDNAKNSLSLQMNSLRAEDTAVYYCTRGGGAYYGGSLDVWGQGVLVTVSS
VL: DIVMTQTPLSLSVTPGEPASISCRSSQSLLHSNEYTYLHWYLQKPGQSPQLLIYLVSHRASGVPDRFSGSGSDTDFTLKISRVEAEDVGVYYCEQTLQTPFTFGGGTKVEIK
IC50, inhibition of human TSLP-induced Stat5 activation (Stat5-luciferase reporter, Ba/F3 cells with hTSLPR and hIL7Ra) (human TSLP [1]): 0.0417 µg/mL
IC50, inhibition of TSLP induced proliferation of Ba/F3-TSLPR-IL7Ra cells (CellTiter-Glo) (human TSLP [2]): 0.217 µg/mL
EC50 (read off the curve) (cynomolgus monkey TSLP [18]): ~2 µg/mL

B8: TSLP-03 (antibody, V domains shown)
VH: EVQLVESGGGLVQPGGSLRLSCAASGFTFSNYDMTWVRQAPGKGLEWVSSITFASSYIYYADSVKGRFTISRDNAKNSLSLQMNSLRAEDTAVYYCTRGGGAYHGGSLDVWGQGVLVTVSS
VL: DIVMTQTPLSLSVTPGEPASISCRSSQSLLHINGYTYLHWYLQKPGQSPQLLIYLVSHRASGVPDRFSGSGSDTDFTLKISRVEAEDVGVYYCEQTLQTPYSFGGGTKVEIK
notes: also called parent antibody TSLP-03
IC50, inhibition of human TSLP-induced Stat5 activation (Stat5-luciferase reporter, Ba/F3 cells with hTSLPR and hIL7Ra) (human TSLP [1]): 0.0367 µg/mL
IC50, inhibition of TSLP induced proliferation of Ba/F3-TSLPR-IL7Ra cells (CellTiter-Glo) (human TSLP [2]): 0.198 µg/mL
EC50 (read off the curve) (human TSLP [19]): ~0.08 µg/mL
EC50 (read off the curve) (cynomolgus monkey TSLP [18]): ~0.9 µg/mL
IC50 (TSLP-His): 0.494 µg/mL

B9: TSLP-0302 (antibody, V domains shown)
VH: EVQLVESGGGLVQPGGSLRLSCAASGFTFSNYGMTWVRQAPGKGLEWVSSITFASSYIYYADSVKGRFTISRDNAKNSLSLQMNSLRAEDTAVYYCTRGGGAYYGGSLDVWGQGVLVTVSS
VL: DIVMTQTPLSLSVTPGEPASISCRSSQSLLHSYGYTYLHWYLQKPGQSPQLLIYLVSYRASGVPDRFSGSGSDTDFTLKISRVEAEDVGVYYCEQTLQTPYTFGGGTKVEIK
EC50 (read off the curve) (human TSLP [19]): ~0.06 µg/mL
